# Source: patent publication US20190322750A1 (Y BIOLOGICS, published 2019)
# T1: PD-L2-Fc (human, UniProt Q9BQ51)
# T1 construct: recombinant Fc fusion; also called human PD-L2-Fc (#10292-H02H, Sino)
# T1 sequence (ligand-Fc, looked up): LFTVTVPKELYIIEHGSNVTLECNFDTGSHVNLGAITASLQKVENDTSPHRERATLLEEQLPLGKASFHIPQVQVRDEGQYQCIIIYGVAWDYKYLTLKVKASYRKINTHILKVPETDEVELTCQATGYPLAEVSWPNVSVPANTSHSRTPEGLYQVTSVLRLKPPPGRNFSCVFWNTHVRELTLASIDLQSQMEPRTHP
# T2: ITGA6
# T2 construct: unrelated antigen column; all antibodies give 0.5 to 0.6
# T2 sequence (P23229 whole entry, species assumed, looked up): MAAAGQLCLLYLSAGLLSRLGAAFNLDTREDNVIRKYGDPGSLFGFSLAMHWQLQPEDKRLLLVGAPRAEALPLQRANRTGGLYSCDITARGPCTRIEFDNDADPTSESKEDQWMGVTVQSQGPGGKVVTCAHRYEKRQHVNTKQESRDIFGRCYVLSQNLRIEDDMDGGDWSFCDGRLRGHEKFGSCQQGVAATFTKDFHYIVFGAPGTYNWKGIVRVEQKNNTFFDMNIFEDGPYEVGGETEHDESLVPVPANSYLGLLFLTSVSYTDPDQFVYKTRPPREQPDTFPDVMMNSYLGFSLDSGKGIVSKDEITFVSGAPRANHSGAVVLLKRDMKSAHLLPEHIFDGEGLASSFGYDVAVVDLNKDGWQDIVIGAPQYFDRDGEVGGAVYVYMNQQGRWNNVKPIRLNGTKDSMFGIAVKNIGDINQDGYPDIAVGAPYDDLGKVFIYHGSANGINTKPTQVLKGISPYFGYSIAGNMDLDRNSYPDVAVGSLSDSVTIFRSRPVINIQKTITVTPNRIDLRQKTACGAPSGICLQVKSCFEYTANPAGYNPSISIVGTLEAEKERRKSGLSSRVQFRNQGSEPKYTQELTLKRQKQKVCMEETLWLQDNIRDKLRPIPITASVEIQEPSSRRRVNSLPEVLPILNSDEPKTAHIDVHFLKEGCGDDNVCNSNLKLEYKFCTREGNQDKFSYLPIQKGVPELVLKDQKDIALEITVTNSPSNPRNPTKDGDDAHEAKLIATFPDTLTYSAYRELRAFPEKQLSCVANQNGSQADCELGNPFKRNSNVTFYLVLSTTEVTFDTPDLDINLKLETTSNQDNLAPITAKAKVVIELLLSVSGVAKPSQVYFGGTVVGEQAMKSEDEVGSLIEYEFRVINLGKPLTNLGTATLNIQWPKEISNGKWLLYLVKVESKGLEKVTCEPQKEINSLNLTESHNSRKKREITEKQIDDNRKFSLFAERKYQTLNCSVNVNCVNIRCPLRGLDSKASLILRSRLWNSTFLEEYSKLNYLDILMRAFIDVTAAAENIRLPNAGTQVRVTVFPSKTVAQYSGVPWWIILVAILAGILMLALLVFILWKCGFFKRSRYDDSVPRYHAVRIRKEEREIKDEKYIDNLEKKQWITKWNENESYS
# B1: PD-L1-16E12 (WT/Lambda) (antibody, V domains shown)
# VH: QMQLVQSGAEVKKPGSSVKVSCKASGGTFSSYAISWVRQAPGQGLEWMGRIIPILGIANYAQKFQGRVTITADKSTSTAYMELSSLRSEDTAVYYCAKPRDGYNLVAFDIWGQGTMVTVSS
# VL: QLVLTQPPSVSGAPGQTVTISCTGSSSNIGAGYDVHWYQQLPGTAPKLLIYGNNNRPSGVPDRFSGSKSGALASLAITGLQAEDGADYHCQSYDNSLSAHAVFGTGTKVTVL
# B2: PDL1-16E12 (LS/4F5) (antibody, V domains shown)
# VH: B1 VH
# VL: QLVLTQPPSVSGAPGQRVTISCTGSSSNIGAGYDVHWYQQLPGAAPKLLIYGDINRPSGVPDRFSGSKSGISASLAITGLQAEDEADYYCQSYDSSLSGGVFGGGTKLTVL
# notes: also called 16E12(4F5); 16E12-4F5
# B3: PD-L1-16E12-LS-4F5 (Kappa) (antibody, V domains shown)
# VH: B1 VH
# VL: B2 VL
# B4: PD-L1-16E12 (WT/kappa) (antibody, V domains shown)
# VH: B1 VH
# VL: B1 VL
# notes: also called PD-L1-16E12-Kappa
# B5: PD-L1-16E12-LS-4F5 (Lambda) (antibody, V domains shown)
# VH: B1 VH
# VL: B2 VL
# B6: PDL1-11A7 (antibody, V domains shown)
# VH: QVQLVQSGAEVKKPGASVKVSCKVSGYTLTELSMHWVRQAPGKGLEWMGGFDPEDGETIYAQKFQGRVTMTEDTSTDTAYMELSSLRSEDTAVYYCARDPWGGYYGMDVWGQGTTVTVSS
# VL: DIQMTQSPSSVSASVGDRVTINCRASQGIRTWLAWYQQKPGKAPKLLIYAASNLQSGVPSRFSGSGSGTDFTLTIASLQPEDFATYYCQQANSFPLTFGGGTKVEIK
# notes: Only FR/CDR pieces are tied to the clone
# Legend:
# [1] = biological target: T3, PD-L1 on CHO cell line highly expressing PD-L1 (PD-1/PD-L1 blockade bioassay kit, promega J1250) (UniProt Q9NZQ7 19-290, limits assumed); experiment: cell-based or functional assay
# T3 sequence (Q9NZQ7 19-290 limits assumed): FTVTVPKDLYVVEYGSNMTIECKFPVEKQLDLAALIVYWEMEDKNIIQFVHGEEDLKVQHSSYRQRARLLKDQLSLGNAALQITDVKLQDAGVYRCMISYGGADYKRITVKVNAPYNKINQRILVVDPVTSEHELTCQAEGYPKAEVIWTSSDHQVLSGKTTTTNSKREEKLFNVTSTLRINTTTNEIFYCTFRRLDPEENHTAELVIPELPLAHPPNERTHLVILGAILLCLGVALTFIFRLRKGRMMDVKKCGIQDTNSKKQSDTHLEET
# [2] = biological target: T4, PD-L1-His (human, UniProt Q9NZQ7); experiment: competition ELISA: PD-L1-His pre-incubated with the antibody, then on coated PD-1-Fc (blocked ligand); % of max absorbance
# T4 construct: recombinant, His-tagged; also called human PD-L1-His (S1479, Y-Biologics)
# T4 sequence (Q9NZQ7 19-238 limits assumed): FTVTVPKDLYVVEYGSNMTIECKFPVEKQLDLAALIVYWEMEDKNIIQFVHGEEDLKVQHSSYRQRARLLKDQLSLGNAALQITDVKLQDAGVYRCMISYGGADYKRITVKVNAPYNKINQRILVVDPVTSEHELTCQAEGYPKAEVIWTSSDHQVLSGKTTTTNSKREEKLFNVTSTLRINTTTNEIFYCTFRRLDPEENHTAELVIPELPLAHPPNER
# [3] = biological target: T5, human PD-L1 over-expressed on HEK293E cells (human, UniProt Q9NZQ7 19-290); experiment: flow cytometry on HEK293E/PD-L1 cells, FITC anti-human IgG, serial dilutions; fit table
# T5 construct: whole, on cells; also called human PD-L1 (NM_014143.2)
# T5 sequence (Q9NZQ7 19-290): as the sequence (Q9NZQ7 19-290 limits assumed) above
# Protocol: 0.5 to 1×10⁶ cells per sample were prepared from the transformation cell pools highly expressing human PD-L1, and antibodies were serially diluted at a constant dilution rate and reacted with the prepared cells at 4° C. for 20 minutes. Then, the cells were washed three times with PBS (#LB001-02, Welgene) containing 2% fetal bovine serum and reacted at 4° C. for 20 minutes with an anti-human IgG antibody (#FI-3000, Vectorlabs) conjugated with a FITC (fluorescein isothiocyanate) fluorescent substance. Then, the cells were subjected to the same washing process as above and then suspended in 0.5 ml of PBS containing 2% FBS (#26140-079, Thermo Fisher) with an FACSCanto II flow cytometer (BD Biosciences, USA) as a flow cytometer (Table 11).
# [4] = biological target: T6, PD-L1-hFc (human, UniProt Q9NZQ7 19-238); experiment: SPR (ProteOn XPR36), PD-L1-hFc immobilised on GLC chip, antibody as analyte; human PD-L1
# T6 construct: extracellular domain; Made in HEK-293F cells, protein A purified; also called PD-L1 antigen; PD-L1 protein
# T6 sequence (Q9NZQ7 other isoform, or with tags, fused parts or gaps limits assumed): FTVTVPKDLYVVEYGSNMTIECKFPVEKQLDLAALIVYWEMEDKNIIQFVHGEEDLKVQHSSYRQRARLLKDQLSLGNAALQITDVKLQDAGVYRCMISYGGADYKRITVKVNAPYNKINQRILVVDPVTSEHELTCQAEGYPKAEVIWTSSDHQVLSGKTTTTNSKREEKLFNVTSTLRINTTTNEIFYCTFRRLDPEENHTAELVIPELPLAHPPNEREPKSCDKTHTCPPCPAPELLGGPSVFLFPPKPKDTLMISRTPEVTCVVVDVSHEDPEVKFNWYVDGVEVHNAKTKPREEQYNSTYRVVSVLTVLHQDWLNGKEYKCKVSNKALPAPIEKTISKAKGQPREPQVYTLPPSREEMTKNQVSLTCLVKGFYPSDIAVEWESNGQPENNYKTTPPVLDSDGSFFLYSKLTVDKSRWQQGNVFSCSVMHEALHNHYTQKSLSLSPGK
# Protocol: A ProteOn XPR36 (BioRad) instrument was used. The GLC sensor chip (BioRad) was mounted on the instrument and washed with PBST buffer, and the carboxymethyldextran surface was activated with an EDC/sulfo-NHS mixed solution. PD-L1-hFc dissolved at a concentration of 5 ug/ml in a 10 mM sodium acetate buffer solution (pH 5.0) was injected and immobilized on the GLC sensor chip.
# In order to deactivate the activated carboxyl groups that remain unreacted with the PD-L1 protein, 1 M ethanolamine was flowed and 10 mM glycine (pH 2.0) was injected in order to wash proteins that remain unbound to the sensor chip.
# [5] = biological target: T7, mouse PD-L1 protein (mouse, UniProt Q9EP73 19-238, limits assumed); experiment: SPR (ProteOn XPR36); format of the mouse protein not stated
# T7 sequence (Q9EP73 19-238 limits assumed): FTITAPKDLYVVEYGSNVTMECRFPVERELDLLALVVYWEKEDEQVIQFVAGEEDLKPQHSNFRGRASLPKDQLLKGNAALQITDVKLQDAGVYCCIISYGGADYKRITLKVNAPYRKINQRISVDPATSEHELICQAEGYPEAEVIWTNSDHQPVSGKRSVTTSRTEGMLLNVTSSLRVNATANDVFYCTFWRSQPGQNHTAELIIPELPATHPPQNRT
# [6] = biological target: T8, cynomolgus PD-L1 protein (cynomolgus, UniProt G7PSE7 19-239); experiment: SPR (ProteOn XPR36); format of the cynomolgus protein not stated; cynomolgus PD-L1
# T8 construct: also called monkey PD-L1
# T8 sequence (G7PSE7 entry or part of it): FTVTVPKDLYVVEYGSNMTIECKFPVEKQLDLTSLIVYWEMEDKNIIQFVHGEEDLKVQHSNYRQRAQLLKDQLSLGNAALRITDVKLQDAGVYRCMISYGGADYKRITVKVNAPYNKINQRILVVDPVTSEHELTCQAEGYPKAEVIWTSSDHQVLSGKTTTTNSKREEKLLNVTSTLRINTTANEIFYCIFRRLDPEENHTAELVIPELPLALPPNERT
# [7] = biological target: T6, PD-L1-hFc; experiment: kinetics on PD-L1-hFc (legend paragraph 40; text names ProteOn XPR36, the sheet's sensorgrams have a nm axis)
# [8] = biological target: T3, PD-L1 on CHO cell line highly …; experiment: cell-based or functional assay; remark: listed apart in the source
# [9] = biological target: T1, PD-L2-Fc; experiment: ELISA on coated PD-L2-Fc (2.5 and 5 ug/well), OD450nm
# [10] = biological target: T9, WT (human, UniProt Q9NZQ7); experiment: ELISA on coated antigen, column WT
# T9 construct: recombinant; also called hPD-L1; antigen PD-L1 wild type (WT)
# T9 sequence (Q9NZQ7 19-238 limits assumed): as the sequence (Q9NZQ7 19-238 limits assumed) above
# Protocol: (§1) An antigen PD-L1 wild type (WT) or several mutants were coated at a density of 100 ng/well on a 96-well immunoplate at 4° C. for 16 hours and the wells were blocked with 4% skim milk dissolved in PBS. Each well was washed with 0.2 ml of PBS/T, and then a single clone scFv-phage (each […]) cultured for 16 hours was added in a dose of 100 μl to each well and reacted at room temperature for 2 hours. Again, each well was washed 4 times with 0.2 ml of PBS/T, and then the second antibody, anti-Fab, was diluted to 1/2000 and reacted at room temperature for 1 hour. After washing with 0.2 ml of PBS/T, color development was performed and absorbance was measured at 490 nm.
# [11] = biological target: T7, mouse PD-L1 protein; experiment: ELISA on coated antigen, column mPD-L1
# Protocol: as §1
# [12] = biological target: M7; experiment: ELISA on coated antigen, column M7
# [13] = biological target: T2, ITGA6; experiment: ELISA on coated antigen, column ITGA6
# [14] = biological target: M8; experiment: ELISA on coated antigen, column M8
# Protocol: as §1
# [15] = biological target: M1; experiment: ELISA on coated antigen, column M1
# Protocol: as §1
# [16] = biological target: M3; experiment: ELISA on coated antigen, column M3
# [17] = biological target: M2; experiment: ELISA on coated antigen, column M2
# Protocol: as §1
# [18] = biological target: M5; experiment: ELISA on coated antigen, column M5
# Protocol: as §1
# [19] = biological target: M4; experiment: ELISA on coated antigen, column M4
# Protocol: as §1
# [20] = biological target: M6; experiment: ELISA on coated antigen, column M6
# Protocol: as §1
binder,measurement,setting,value
B1,"Average *EC50 [nM], PD-1/PD-L1 blockade bioassay",[1],0.96 nM
same,IC50,[2],9.11 nM
B2,Bmax,[3],4100
same,Kd,[3],1.46 nM
same,Kd,[4],< 0.032 nM
same,koff,[4],< 1e-05 s⁻¹
same,kon,[4],310000 M⁻¹ s⁻¹
same,Kd,[5],0.808 nM
same,koff,[5],0.000673 s⁻¹
same,kon,[5],833000 M⁻¹ s⁻¹
same,Kd,[6],< 0.035 nM
same,koff,[6],< 1e-05 s⁻¹
same,kon,[6],287000 M⁻¹ s⁻¹
same,Kd,[7],0.00853 nM
same,koff,[7],2.18e-06 s⁻¹
same,kon,[7],256000 M⁻¹ s⁻¹
same,EC50 (first run),[8],0.3 nM
same,EC50 (second run),[8],0.21 nM
B3,"Average *EC50 [nM], PD-1/PD-L1 blockade bioassay",[1],0.25 nM
same,binding result,[9],no binding (tested: 1.0 ug/ml)
same,IC50,[2],7.66 nM
B4,Bmax,[3],4140
same,Kd,[3],4 nM
same,"Average *EC50 [nM], PD-1/PD-L1 blockade bioassay",[1],0.47 nM
same,Kd,[7],0.0149 nM
same,kon,[7],268000 M⁻¹ s⁻¹
same,"EC50 (column 1차 EC50 [nM], first run; row 16E12, curve legend 16E12_Kappa)",[8],0.41 nM
same,"EC50 (column 2차 EC50 [nM], second run; row 16E12, curve legend 16E12_Kappa)",[8],0.45 nM
same,IC50,[2],7.88 nM
B5,"Average *EC50 [nM], PD-1/PD-L1 blockade bioassay",[1],0.25 nM
same,IC50,[2],6.86 nM
B6,absorbance at 490 nm,[10],2.5
same,absorbance at 490 nm,[11],0.1
same,binding result,[11],no binding
same,absorbance at 490 nm,[12],2.5
same,absorbance at 490 nm,[13],0.5
same,absorbance at 490 nm,[14],0.4
same,absorbance at 490 nm,[15],2.5
same,absorbance at 490 nm,[16],0.8
same,"Average *EC50 [nM], PD-1/PD-L1 blockade bioassay",[1],3.25 nM
same,absorbance at 490 nm,[17],2.3
same,absorbance at 490 nm,[18],2.5
same,absorbance at 490 nm,[19],2.4
same,absorbance at 490 nm,[20],2.5
